From patent US20080113383A1, “Hif Prolyl Hydroxylase Activity Assay” (Fibro Gen, Inc., priority 2004, published 2008)
Where “and” joins values, the source holds several entries; their conditions need not be identical. Equal entries are not always repeated. Where no end group is shown, it is not given here. [ ]: non-standard residue; d: D form. ΔPro = O=C(O)[C@@H]1C=CCN1; Aze = O=C(O)[C@@H]1CCN1

Legend:
Assay type in all cases: biochemical
EGLN1 [1] = biological target: T1, EGLN1 (Homo sapiens, UniProt Q9GZT9); assay: Standard reaction (I): EGLN enzyme activity with hydroxylatable peptide substrate, 14CO2 release from 2-oxo[1-14C]glutaric acid; conditions: for specificity of peptide for EGLN1, EGLN2 and EGLN3 compared: standard reaction (I) peptides, from Table 1 and FIGS. 3, 4
Description: (§1) Enzyme activity can be measured by monitoring the consumption of one or more reaction substrates, or accumulation of one or more reaction products. For example, enzyme activity in either the standard reaction (I) or the modified reaction (II) can be measured using a modified version of a method described by Kivirikko and Myllyla (1982, Methods Enzymol 82:245-304), which is based on the decarboxylation of 2-oxo[1-^14C]glutaric acid. In this method, radioactive ^14CO2 produced during the reaction is captured on base-impregnated filter papers and the captured radioactivity determined by liquid scintillation counting. In a particular embodiment, enzyme activity in standard reaction (I) was measured as described in Example 2 (infra).
(§2) In DLD19, methionine (M) residues were changed to alanine (A) residues due to potential oxidation of methionine during the assay reaction. Peptides used in the assay may additionally contain N-terminal and/or C-terminal blocking groups, e.g., N-terminal acetyl groups, C-terminal amide groups, etc. Enzyme activity in the presence of substrate peptides is provided supra as percent enzyme activity relative to enzyme activity in the presence of control peptide DTD20.
(§3) In all experiments, percent enzyme activity, e.g., as measured by substrate turnover, was less than 30% to insure all data obtained were in the linear range. Enzyme activity in standard reaction (I) was measured in a reaction volume of 1 mL containing EGLN enzyme preparation (10-400 μL), 0.05 μmole hydroxylatable peptide substrate, 0.1 μmole of 2-oxo[1-^14C]glutaric acid (160,000 dpm), 1 μmole of ascorbic acid, 60 μg of catalase and 50 μmole of HEPES buffer adjusted to pH 7.4 at 25° C. Optionally, 0.04 μmole FeSO4 was also be added to the reaction mix. Reactions were carried out at 37° C. for 20 minutes. In various reactions, ascorbate was replaced by 0.1 to 15 mM potassium ferrocyanide. Results are provided in Table 1 (supra) and FIGS. 3 and 4.

EGLN3 = EGLN3 (Homo sapiens, UniProt Q9H6Z9); assay: as above
Description: as §1, §2, §3

EGLN1 [2] = biological target: T1, EGLN1; assay: Modified reaction (II): EGLN enzyme activity with non-hydroxylatable proline-analog peptide and reducing agent; conditions: modified reaction (II) peptides, from Tables 3, 4 and FIGS. 3, 4
Description: The peptides shown in Table 3, which retain measurable activity in the present assay, are specifically contemplated for use in assays disclosed herein. These peptides are used in a reaction additionally requiring co-substrate 2-oxoglutarate and a reducing agent, e.g., ascorbate; an EGLN enzyme, and oxygen, as described below. The reaction may also include Fe^2+. The reaction proceeds according to the modified reaction (II), in which 2-oxoglutarate is converted to succinate and carbon dioxide, and the reducing agent is subsequently oxidized, e.g., ascorbate is oxidized to dehydroascorbate. […]
In still other embodiments, enzyme activity within the modified reaction (II) may be measured by disappearance of the reduced form of the reducing agent or appearance of the oxidized form of the agent. […] For example, when ascorbate is used in modified reaction (II), disappearance of ascorbate and/or appearance of dehydroascorbate may be measured, e.g., using HPLC. In particular embodiments, ascorbate may be added to modified reaction (II) in limiting quantity, and ascorbate is regenerated during the reaction with concomitant oxidation of NADH to NAD^+ using a modification of the method described by Diliberto and Allen (1981, J Biol Chem 256:3385-3393). […] HIF-PH activity is measured indirectly by consumption of NADH, which produces a reduction in absorbance at a wavelength of 340 nm. […]

EGLN2 = EGLN2 (Homo sapiens, UniProt Q96KS0); assay: Standard reaction (I): EGLN enzyme activity with hydroxylatable peptide substrate, 14CO2 release from 2-oxo[1-14C]glutaric acid; conditions: Table 1; enzyme activity relative to control peptide DTD20; 37° C., 20 minutes, pH 7.4
Description: as §1, §2, §3

[3] = Table 1, enzyme activity relative to control peptide DTD20, 37° C., 20 minutes, pH 7.4

T1 sequence (Q9GZT9 whole entry): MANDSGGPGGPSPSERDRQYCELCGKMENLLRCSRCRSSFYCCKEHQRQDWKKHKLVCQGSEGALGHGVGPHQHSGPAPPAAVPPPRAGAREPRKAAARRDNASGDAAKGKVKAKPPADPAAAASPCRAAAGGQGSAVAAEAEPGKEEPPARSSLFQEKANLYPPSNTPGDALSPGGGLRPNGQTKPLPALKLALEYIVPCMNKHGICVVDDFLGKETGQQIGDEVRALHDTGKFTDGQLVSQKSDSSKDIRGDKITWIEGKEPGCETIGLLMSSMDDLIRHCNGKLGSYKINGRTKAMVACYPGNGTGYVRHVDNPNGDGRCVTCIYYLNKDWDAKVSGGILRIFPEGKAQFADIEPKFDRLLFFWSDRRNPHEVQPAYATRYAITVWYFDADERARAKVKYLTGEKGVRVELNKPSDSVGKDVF
EGLN3, sequence (Q9H6Z9 whole entry): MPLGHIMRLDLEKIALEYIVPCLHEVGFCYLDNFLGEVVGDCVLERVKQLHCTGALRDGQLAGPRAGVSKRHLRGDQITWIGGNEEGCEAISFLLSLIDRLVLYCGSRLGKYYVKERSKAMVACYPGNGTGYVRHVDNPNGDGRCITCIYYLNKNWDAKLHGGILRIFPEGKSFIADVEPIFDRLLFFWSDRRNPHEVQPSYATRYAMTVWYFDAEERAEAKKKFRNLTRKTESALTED
EGLN2, sequence (Q96KS0 whole entry): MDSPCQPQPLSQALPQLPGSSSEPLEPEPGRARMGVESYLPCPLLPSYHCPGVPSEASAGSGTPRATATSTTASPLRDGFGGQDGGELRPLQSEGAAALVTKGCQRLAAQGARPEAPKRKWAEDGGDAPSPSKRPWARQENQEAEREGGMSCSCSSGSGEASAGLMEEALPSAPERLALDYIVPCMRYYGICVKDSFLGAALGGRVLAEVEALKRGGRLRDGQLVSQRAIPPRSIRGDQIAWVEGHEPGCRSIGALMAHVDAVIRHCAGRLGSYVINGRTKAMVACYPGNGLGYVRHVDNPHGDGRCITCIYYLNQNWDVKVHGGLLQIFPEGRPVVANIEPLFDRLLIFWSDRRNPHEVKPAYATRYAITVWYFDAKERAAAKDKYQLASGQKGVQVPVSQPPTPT

hydroxylation of peptide by EGLN1 (EGLN1 [1]) | hydroxylation of peptide by EGLN3 (EGLN3) | Substance | specificity of peptide for EGLN1, EGLN2 and EGLN3 compared (EGLN1 [1]) | other results
readily hydroxylated | readily hydroxylated | DTDLDWEMVApYIPADDDFQ (DTDLDWEMVAPYIPADDDFQ; not fully specified (residue 11); printed as DTDLDWEMVApYIPADDDFQ) [SEQ ID NO 92] |  | 
 |  | DTDLDLEALA4YIPADDDFQ (DTDLDLEALA[ΔPro]YIPADDDFQ) [SEQ ID NO 62, 4 = 3,4-dehydroproline in place of the hydroxylated proline] |  | specificity of proline-analog peptide for EGLN1, EGLN2 and EGLN3 compared (EGLN1 [2]): higher specificity for EGLN1 and EGLN2 than for EGLN3
 |  | DTDLDMEALApYIPADDDFQ (DTDLDMEALAPYIPADDDFQ; not fully specified (residue 11); printed as DTDLDMEALApYIPADDDFQ) [SEQ ID NO 13] | higher specificity for EGLN3 than for EGLN1 and EGLN2 | 
readily hydroxylated | readily hydroxylated | DTDLDYEMIApYIPADDDFQ (DTDLDYEMIAPYIPADDDFQ; not fully specified (residue 11); printed as DTDLDYEMIApYIPADDDFQ) [SEQ ID NO 89] |  | 
 |  | 45 (DTDLDTEALAPYIPADDDFQ) [compound 45] |  | Activity (%) EGLN1 (EGLN1 [1]; [3]): 25.67% and 23.36%; Activity (%) EGLN2 (EGLN2): 20.49% and 18.04%; Activity (%) EGLN3 (EGLN3; [3]): 64.55% and 60.23%
 |  | DTDLDIEALApYIPADDDFQ (DTDLDIEALAPYIPADDDFQ; not fully specified; printed as DTDLDIEALApYIPADDDFQ) [SEQ ID NO 24] | higher specificity for EGLN3 than for EGLN1 and EGLN2 | 
 |  | DTDLDLEARApYIPADDDFQ (DTDLDLEARAPYIPADDDFQ; not fully specified; printed as DTDLDLEARApYIPADDDFQ) [SEQ ID NO 15] | higher specificity for EGLN1 and EGLN2 than for EGLN3 | 
readily hydroxylated | readily hydroxylated | DTDLDWEMVSpYIPADDDFQ (DTDLDWEMVSPYIPADDDFQ; not fully specified (residue 11); printed as DTDLDWEMVSpYIPADDDFQ) [SEQ ID NO 90] |  | 
readily hydroxylated | readily hydroxylated | DTDLDWEAVSpYIPADDDFQ (DTDLDWEAVSPYIPADDDFQ; not fully specified (residue 11); printed as DTDLDWEAVSpYIPADDDFQ) [SEQ ID NO 91] |  | 
 |  | DTDLDFEALApYIPADDDFQ (DTDLDFEALAPYIPADDDFQ; not fully specified; printed as DTDLDFEALApYIPADDDFQ) [SEQ ID NO 19] | higher specificity for EGLN3 than for EGLN1 and EGLN2 | 
 |  | DTDLDLEALA8YIPADDDFQ (DTDLDLEALA[Aze]YIPADDDFQ) [SEQ ID NO 63, 8 = L-azetidine-2-carboxylate in place of the hydroxylated proline] |  | specificity of proline-analog peptide for EGLN1, EGLN2 and EGLN3 compared (EGLN1 [2]): higher specificity for EGLN3 than for EGLN1 and EGLN2
